According to patent US20160108110A1 (Novartis, published 2016):
Numbering of substitutions follows the chain as printed. Blank lines part the entries; values can stand above or below the binder they belong to.

Tests used:
[1] = target: T1, Human ANGPTL4(26-406)-FLAG-His6-Avi (human, UniProt Q9BY76 24-406, biotin on the C-terminal Avi tag in the biotinylated preparations (immobilised form in SET, ELISA and Octet)); experiment: cell-based or functional assay
T1 sequence: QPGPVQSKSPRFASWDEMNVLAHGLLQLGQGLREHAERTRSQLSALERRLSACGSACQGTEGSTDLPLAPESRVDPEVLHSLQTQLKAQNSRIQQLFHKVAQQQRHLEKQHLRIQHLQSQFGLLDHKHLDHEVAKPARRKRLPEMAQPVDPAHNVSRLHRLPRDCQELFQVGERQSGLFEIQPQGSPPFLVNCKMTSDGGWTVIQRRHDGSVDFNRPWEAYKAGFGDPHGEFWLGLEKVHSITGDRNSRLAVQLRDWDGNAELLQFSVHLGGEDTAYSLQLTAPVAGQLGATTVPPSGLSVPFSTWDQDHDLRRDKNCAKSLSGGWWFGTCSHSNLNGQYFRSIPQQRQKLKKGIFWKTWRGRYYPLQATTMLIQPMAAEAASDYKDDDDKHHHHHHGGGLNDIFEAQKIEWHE

[2] = target: T2, Human ANGPTL3(17-460)-FLAG-His-Avi (human, UniProt Q9Y5C1 17-460, biotin on the C-terminal Avi tag); experiment: direct ELISA on streptavidin-coated MSD plate: biotinylated antigen immobilised at 1 nM, antibody at 1 nM, detection with Sulfo-tagged goat anti-human IgG
T2 construct: also called full length human ANGPTL3; hANGPTL3
T2 sequence: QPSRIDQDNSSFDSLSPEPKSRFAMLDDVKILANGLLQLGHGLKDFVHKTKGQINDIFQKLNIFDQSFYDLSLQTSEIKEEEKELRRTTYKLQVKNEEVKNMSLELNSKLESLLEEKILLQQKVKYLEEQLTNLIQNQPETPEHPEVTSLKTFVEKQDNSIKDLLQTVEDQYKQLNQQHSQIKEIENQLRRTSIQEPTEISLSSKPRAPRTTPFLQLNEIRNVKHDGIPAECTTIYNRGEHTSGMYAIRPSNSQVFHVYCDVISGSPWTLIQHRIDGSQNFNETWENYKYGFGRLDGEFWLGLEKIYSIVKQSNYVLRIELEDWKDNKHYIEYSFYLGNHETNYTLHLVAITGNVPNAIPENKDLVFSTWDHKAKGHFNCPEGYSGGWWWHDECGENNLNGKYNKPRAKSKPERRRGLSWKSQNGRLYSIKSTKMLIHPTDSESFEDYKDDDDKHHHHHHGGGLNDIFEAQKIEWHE
Method: Direct ELISA assays were conducted to characterize antibody binding specificity of selected antibodies of the invention. The assay was performed as follows. A 384-well streptavidin-coated Meso Scale Discovery (MSD) plate was blocked by incubating the plate with 50 μL Blocking Buffer (PBS, pH 7.4, 5% w/v bovine serum albumin) per well at 22° C. for 1 hour with constant shaking (600 rpm). The blocked MSD plate was then washed 3 times with Wash Buffer (PBS, pH 7.4 and 0.05% v/v Tween-20) using a plate washer (BioTek). Following washing, biotinylated human ANGPTL4 proteins diluted in Assay Buffer (PBS, pH 7.4 without CaCl₂ or MgCl₂, 0.5% w/v fatty acid-free bovine serum albumin and 0.02% v/v Tween-20) were immobilized on the surface by incubation at 1 nM concentration (15 μL per well) at 22° C. for one hour: full length human ANGPTL4 (hANGPTL4), human ANGPTL4 coiled-coil domain (hANGPTL4-CCD) and full length human ANGPTL3 (hANGPTL3). The plate was then washed 3 times as described earlier. Antibody diluted to 1 nM concentration in Assay Buffer was then applied to the MSD plate […], and the plate was incubated for 1 hour at 22° C. with constant shaking (600 rpm). Bound antibodies were detected by adding 15 μL per well of a 1:500 dilution of Sulfo-tagged goat anti-human IgG. The plate was then incubated for one hour with constant shaking (600 rpm). The plate was washed 3 times, and then 15 μL/well of 1×MSD read buffer T was added and the plate was developed using a Sector Imager 6000 (Meso Scale Discovery). The data were transferred to Microsoft Excel for analysis and plotted using GraphPad Prism v6. […] An ANGPTL3-specific reference antibody was used as a positive control for the ANGPTL3 binding assay (FIG. 2).

[3] = target: T1, Human ANGPTL4(26-406)-FLAG-His6-Avi; experiment: ForteBio Octet, biotinylated antigen on streptavidin sensor, antibody in solution
Method: Dissociation constants (KD) were determined for selected antibodies of the invention by using an Octet (ForteBio) kinetic binding assay. ForteBio 10× Kinetics Buffer (ForteBio, catalog number 18-5032) was diluted 10-fold with DPBS (Life Technologies, catalog number 14190-136), and the resulting solution was added (0.2 ml per well) to a 96-well plate (Greiner, catalog number 65520). Streptavidin sensors (ForteBio, catalog number 18-5020) were immersed in the solution and equilibrated for at least 10 min at room temperature. In a second 96-well plate (Greiner, catalog number 65520), sensors were washed in 1× Kinetics buffer, and then immersed in 200 ul of 25 nM biotinylated human ANGPTL4 or a biotinylated reference protein (for background substraction) for 1000 sec […] at room temperature. The sensors were then washed in 1× Kinetics buffer for 120 sec, and immersed in 200 ul of ANGPTL4 antibody diluted in 1× Kinetics buffer at various concentrations (serial 2-fold dilutions ranging from 25 nM to 0.4 nM), and antibody association was monitored for 480 seconds. The sensors were then transferred to a well containing 200 ul 1× Kinetics buffer, and antibody dissociation was monitored for 1200 seconds. Background-corrected association and dissociation curves were globally fitted by Octet Software (ForteBio) to generate association (kₒₙ) and dissociation (koff) rate constants, which in turn were used to calculate equilibrium dissociation constants (KD).

[4] = target: T1, Human ANGPTL4(26-406)-FLAG-His6-Avi; experiment: SET assay (solution equilibrium titration, MSD), IgG
Method: SET assays were performed as follows. In a 96-well polypropylene plate, a constant concentration of ANGPTL4 antibody was mixed with different concentrations of non-biotinylated human, cyno, mouse, or rat full-length ANPGLT4 protein, or human ANGPTL4 N-terminal domain protein (5-fold serial dilution) and incubated at 22° C. for 14 hours with constant shaking (300 rpm). On a pre-blocked 384-well streptavidin-coated Meso Scale Discovery (MSD) plate biotinylated ANGPTL4 (full-length human, cyno, mouse, or rat ANGPTL4, or human ANGPTL4 N-terminal domain) protein (1 nM, 15 μL per well) was immobilized and washed thereafter.
The equilibrium binding reactions (15 μL per well) were applied to the MSD plate with immobilized ANGPTL4 and incubated for 20 min at 22° C. The unbound material was removed by washing the plate 3 times with wash buffer, and the captured antibody was detected by adding Sulfo-tagged goat anti-human IgG (Meso Scale Discovery). After washing MSD read buffer T was added and the plate was developed using a Sector Imager 6000 (Meso Scale Discovery). The data were transferred to Microsoft Excel for analysis and plotted using GraphPad Prism v6. The KD values were determined by fitting the data to the following equation: […]
where Bₘₐₓ is the signal when no ANGPTL4 protein is present in solution, CAb is the constant concentration of ANGPTL4 antibody in solution, CAg is the concentration of ANGPTL4 in solution, and KD is the equilibrium dissociation constant.

[5] = target: T1, Human ANGPTL4(26-406)-FLAG-His6-Avi; experiment: cell-based or functional assay; remark: listed apart in the source
[6] = target: T1, Human ANGPTL4(26-406)-FLAG-His6-Avi; experiment: cell-based or functional assay; remark: listed apart in the source

EC50 (read off the curve) [1(E] [1]: ~0.5 nM | binding result [2]: no binding (tested: 1 nM) | Kd [3]: 0.047 nM | koff [3]: 2.5e-05 s⁻¹ | kon [3]: 530000 M⁻¹ s⁻¹ | Kd [4]: 0.009 nM | Reversal of human ANGPTL4 inhibition of human LPL EC50 [5]: 1 nM
B1: MOR021823 (antibody, human IgG1, kappa, V domains shown)
VH: QVQLLESGGGLVQPGGSLRLSCAASGFTFSSYYLHWVRQAPGKGLEWVSYISGDGSSTYYADSVKGRFTISRDNSKNTLYLQMNSLRAEDTAVYYCARERSYAHDHWGQGTLVTVSS
VL: DIQMTQSPSSLSASVGDRVTITCRASQDIYIDLNWYQQKPGKAPKLLIYAASKLQSGVPSRFSGSGSGTDFTLTISSLQPEDFATYYCQQGYFLPQTFGQGTKVEIKR
notes: human IgG1

EC50 (read off the curve) [1(F] [1]: ~1 nM | binding result [2]: no binding (tested: 1 nM) | Kd [3]: 0.069 nM | koff [3]: 1.5e-05 s⁻¹ | kon [3]: 210000 M⁻¹ s⁻¹ | Kd [4]: 0.026 nM | Reversal of human ANGPTL4 inhibition of human LPL EC50 [5]: 4 nM
B2: MOR021830 (antibody, human IgG1, kappa, V domains shown)
VH: QVQLLESGGGLVQPGGSLRLSCAASGFTFSSYWMHWVRQAPGKGLEWVSGISYDGSSTNYADSVKGRFTISRDNSKNTLYLQMNSLRAEDTAVYYCARDSYIYDLHWGFDNWGQGTLVTVSS
VL: B1 VL with Y30S, I31S, D32Y, K53R, G91S, F93T, L94H, Q96Y
notes: human IgG1

binding result [2]: no binding (tested: 1 nM) | Kd [3]: 0.134 nM | koff [3]: 5.6e-05 s⁻¹ | kon [3]: 420000 M⁻¹ s⁻¹ | Kd [4]: 0.017 nM | EC50 (read off the curve) [1(D] [6]: ~0.5 nM | Reversal of human ANGPTL4 inhibition of human LPL EC50 [5]: 1 nM
B3: MOR021800 (antibody, human IgG1, lambda, V domains shown)
VH: QVQLVQSGAEVKKPGESLKISCKGSGYSFSTYWISWVRQMPGKGLEWMGIIDPSNSDTRYSPSFQGQVTISADKSISTAYLQWSSLKASDTAMYYCARVYGYVYMDVWGQGTLVTVSS
VL: DIELTQPPSVSVSPGQTASITCSGDNLGKKYAYWYQQKPGQAPVLVIYDKTKRPSGIPERFSGSNSGNTATLTISGTQAEDEADYYCASYDWYSSSYVFGGGTKLTVLG
notes: human IgG1

binding result [2]: no binding (tested: 1 nM) | Kd [3]: 0.304 nM | koff [3]: 7.4e-05 s⁻¹ | kon [3]: 240000 M⁻¹ s⁻¹ | Kd [4]: 0.036 nM | Reversal of human ANGPTL4 inhibition of human LPL EC50 [5]: 12 nM
B4: MOR021795 (antibody, human IgG1, lambda, V domains shown)
VH: QVQLVQSGAEVKKPGSSVKVSCKASGGTFNSYAISWVRQAPGQGLEWMGGIIPLFGFANYAQKFQGRVTITADESTSTAYMELSSLRSEDTAVYYCARESYDPYAFDVWGQGTLVTVSS
VL: DIELTQPPSVSVSPGQTASITCSGDNLGKYSASWYQQKPGQAPVLVIHQDNNRPSGIPERFSGSNSGNTATLTISGTQAEDEADYYCASRAHSMHVVFGGGTKLTVLG
notes: human IgG1
